Measurements as given in a protein production outcome set (Wang et al. 2014).

Experiment: label from the status in PepcDB records

| Sequence | protein production |
| --- | --- |
| MGHHHHHHSHMSNPIQAEVLKRVAEVFDQHVPFHNLLGLDIKRYDIDGVEVAINMKPELIGNIHQQILHGGVTATVLDVVGGLTAFAGLVASRDDWTIEELQQRLQTLGTIDMRVDYLRPGRGQIFTGTGSVIRAGNRVSVCRMELHNEQGTHIAFGTGTYMVG | not failed |
| MGHHHHHHSHMSTSLTGKPGALPANLDDMKVAELKQELKLRSLPVSGTKTELIERLRAYQDQISPVPGAPKAPAA | failed |
| MGHHHHHHSHMTENDLASLFNNSALFKALGFNIIEINDDAIVMEINDDNPCHQGGFGVLTSLGINGAVISAALESAIGLCGFNALGREPAGVVELSVKILRVIRKKPCRVEARVDNKNNNVAFISATLISARGGICATGTGIVLKSKTTEATQ | not failed |
| MGHHHHHHSHMVDRLQSEPESIRKWREEQMERLEALDANSRKQEAEWKEKAIKELEEWYARQDEQLQKTKANNRVADEAFYKQPFADVIGYVTNINHPCYSLEQAAEEAFVNDIDESSPGTEWERVARLCDFNPKSS | not failed |
| MGHHHHHHSHMVTHSKFPAAGMSRPLDTSLRLKTFSSKSEYQLVVNAVRKLQESGFYWSAVTGGEANLLLSAEPAGTFLIRDSSDQRHFFTLSVKTQSGTKNLRIQCEGGSFSLQSDPRSTQPVPRFDCVLKLVHHYMPPPGAPSFPSPPTEPSSEVPEQPSAQPLPGSPPRRAYYIYSGGEKIPLVLSRPLSSNVATLQHLCRKTVNGHLDSYEKVTQLPGPIREFLDQYDAPL | failed |
| MGHHHHHHSHSEVAIKIDFDFAPGSFDDQYQGCSKQVMEKLTQGDYFTKDIEAQKNYFRMWQKAHLAWLNQGKVLPQNMTTTHAVAILFYTLNSNVHSDFTRAMASVARTPQQYERSFHFKYLHYYLTSAIQLLRKDSIMENGTLCYEVHYRTKDVHFNAYTGATIRFGQFLSTSLLKEEAQEFGNQTLFTIFTCLGAPVQYFSLKKEVLIPPYELFKVINMSYHPRGNWLQLRSTGNLSTYNCQLLKASSKKC | failed |
| MGHHHHHHSHSKKPYIVTIACTKGGSAKSTNAANIGAFCADHGLRTLLIDTDTQPTLSSYYSLAKTAPGGIYEFLLQRDVEPSHIVSQTSIKNLDLIQSNDPSNNVSHMLRNAPDGSIRFSHLIKSINNYDVIVIDTRGTRDITVDMSVLAADILFCPILPQILSAKEFIRGTIGMYQDLQTFESFGFKLPPLKAIANGVDNTNDVKFVMQKLHTLFANTFDESKTLLDFSIPYHVAYREAVTYALPVYRHSAVEYPVMQQLCC | failed |
| MGHHHHHHSHSSEVNATEEMSTLVNYIEPVKFKSFEAARKRNKCFEMSSFVETKAMEQLTKSPMEFVEYNKQQLSRIYPKGTRVDSSNYMPQLFWNVGCQLVALNFQTLDVAMQLNAGVFEYNGRSGYLLKPEFMRRPDKSFDPFTEVIVDGIVANALRVKVISGQ | failed |
| MGHHHHHHSHVAKVSQREEMVKKCLGELTEVCKSLGKVFGVHYFNIFNTVTLKKLAESLSSDPEVLLQIDGVTEDKL | failed |
| MGHRHQFGHGRRGGALMERALIIGASGWGREVLEQMRGDAGHGKDWLIGGFLDSRTNILDSYGVDTPIIGDPMNYLPQPDDVFVCAMGNPYDRHRYALPILQKGGRFIPICTDVRLGRRVHFGQGCFFGLMVHSGPDVRIGDFVTIHAQSMLGHDVRIGDYVHVGAMAFMGGGVQLGDFVTVHPRATLMPGVKVGDGAVIGAGAVVLKDVPAGATVFGNPAKIVFNKNIPTD | failed |
| MGIFEPFRAIGYITSTVPFSVQRLGTETFVTVSVGKAFQIYNCAKLNLVIISPQLPKKIRALASYRDYTFVAFGNEIAVFRRAHQVATWSKHVAKVDLLLVFGEHVLSLDVEGNMFIWAFKGIEEHLAPIGNLQLTGKFTPTSIVHPDTYLNKVLVGSQEGPLQLWNINTKKMLYQFKGWGSSVTSCVSSPALDVVAIGCADGKIHVHNIKLDEEIVTFEHASRGAVTALSFSTDGRPLLASGGSFGVISIWNLNKKRLQSVIRDAHDSSIISLNFLANEPVLMSASADNSLKMWIFDTNDGDPRLLRFRSGHSAPPLCIRFYSNGRHILSAGQDRAFRLFSVIQEQQSRELSQRHISRRAKKLRLKEEELKLKPVVSFDCAEIRERDWCNVVTCHMDTAEAYVWRLQNFVLGEHILKPCPENPTPIKACAISACGNFAVVGTAGGWIERFNLQSGISRGSYFDMSEKRRYAHDGEVIGVACDSTNTLMISAGYHGDLKVWDFKKRELKSQWDVGCSLVKIVYHRVNGLLATVADDFVIRLYDVVTLKMVREFRGHTDRITDLCFSEDGKWVISSSMDGSLRIWDVILAKQIDGVHVDVPITALSLSPNMDVLATAHSDQNGVYLWVNQSMFSGLPSVESYASGKDVVNVKLPSVSALTSSEADDDMDRQVLENSEALQASSFSISQKQIPELVTLSLLPKSQWQSLINLDIIKARNKPIEPPKKPEKAPFFLPSIPSLSGDILFKANDSEADGENEENNKKDQNSMKNFDALESPFSKHLKSSWDSKHFLDFTNYMKSLSPSALDMELRMLEIIDEDVEEELIKRPEFILIGQLLDYFINEVSCKNDFEFMQAVVKLFLKIHGETIRCHPSLQEKAKKLLETQSLVWQKMEKLFQSTRCIVTFLSNSQF | failed |
| MGIKEKEIELETLKREIAQAEASLEQDFIKYMVDKTNEKVEDLFFSNKPEFYRFVFTEQNNYLREKLTDKVGRAMDLSDEIQRDKTENESLENGTKFKKRFVFELQNDLIFLRTKRNTYSAKTEHENFQERLLAAKDTFRLIKANDFKTKIYPYQITLRLKTKHIIVFRWLKKEIIKRFVKKDLFTETLSIKITDKKGQKYALIANYNHASDIIELMLDDKTYTTTLYYQKPLFDLIKNSNFNLTIKDNTLEINQAKKRLFV | failed |
| MGIKQYSQEELKEMALVEIAHELFEEHKKPVPFQELLNEIASLLGVKKEELGDRIAQFYTDLNIDGRFLALSDQTWGLRSWYPYDQLDEETQPTVKAKKKKAKKAVEEDLDLDEFEEIDEDDLDLDEVEEELDLEADDFDEEDLDEDDDDLEIEEDIIDEDDEDYDDEEEEI | failed |
| MGIKQYSQEELKEMALVEIAHELFEEHKKPVPFQELLNEIASLLGVKKEELGDRIAQFYTDLNIDGRFLALSDQTWGLRSWYPYDQLDEETQPTVKAKKKKAKKAVEEDLDLDEFEEIDEDDLDLDEVEEELDLEADDFDEEDLDEDDDDLEIEEDIIDEDDEDYDDEEEEIK | not failed |
| MGILDKVKNLLSQNADKVETVINKAGEFVDEQTQGNYSDAIHKLHDAASNVVGMSDQQS | not failed |
| MGIRNSKTFTSTDIATYYDVSEDHYMYFWDLNQSHSLHYGYWDASTKTFREALANINRVLAEKASITAGTRVLDAGCGVGGSSIWLAKNKQANVTGITVSKKQAARANTSAAAVNPGGTAVFDVQDYTNTPYHSESFDVVWAIESVCHAANKEDFIKEAYRLLKPGGQLIMADFFIVKDGNADDQRSIDAWGHGWAVPFFEKKDAFQHMLLKAGFNTADMIDSTEHIRRSAKRLYYAFFPGWIISKLYNLVNRRTTEFSKNNVYTAYYQYKTLKKELWKYYIVHAKK | failed |
| MGISVASSNKPNNYDRYFNIYGVVIAAVLAAIAAIEIFEIFELPFEKYFAGIDIASIFSFTTKVVSDSSYVGIFILMTLESMFIPIPSEVILPLSGFLVYQGSFNFAVVLADTIIASMVGSFIDYFLGLYLGRPIIVKILSYFSISEDSLSRAETWIDKMGSFSVFLARFIPGIRSLISLPAGMLKMKMWLFALMTFLGSFIWSFSLIYLGYSAGPYWSVAVKNFSALLDQIIIDVVFLASLAYIFYYIFLKIKRRQHALD | failed |
| MGKIMEWAARSDHLGGIPRNTVIMAVSAFAKAVANLCNKSSVHNADTLMNLVQSRPPGVPLITVSNHMSTLDDPVMWGAFKGLLSLDPELARWVLAAEDICFRNPIFSYIFRTGKCIPITRGGGIYQENMNEALQRLKDGSWLHTFPEGKVFQDDVPIRRLKWGTASLIARSPVTPIVLPIIHRGFEEMMPENYNNGRRPLVPLPNKHLKVVVGEPIEFDVPMMVETAVLDSRHVTPPLQEVKWPVLTSAGQVLDETAQRHLYIALSEKIQSSLETLRLLAKRL | failed |
| MGKKELKRGLVVDREAQMIGVYLFEDGKTYRGIPRGKVLKKTKIYAGDYVWGEVVDPNTFAIEEVEERKNLLIRPKVANVDRVIIVETLKMPEFNNYLLDNMLVVYEYFKVEPVIVFNKIDLLNEEEKKELERWISIYRDAGYDVLKVSAKTGEGIDELVDYLEGFICILAGPSGVGKSSILSRLTGEELRTQEVSEKTERGRHTTTGVRLIPFGKGSFVGDTPGFSKVEATMFVKPREVRNYFREFLRYQCKYPDCTHTNEPGCAVKEAVKNGEISCERYKSYLKIIKVYLEEIKELCRED | not failed |
| MGKKQKMKKAAQMATAAEKLKTAAEKSKTAADNVVAKEKPAEEASPSPSGSGKKGKPKATQKPNVAKALQKEISSSEDALDVKNKPPAGFSGAKGKPHIMGQMDPAYRNKIKKLMSLAKQLPPNVFSLPNSQKEEGASAAKSCVVEDDQSTDSDDAPDLVEADPKETQPDEQGQLGTVAVRTREVSKQSRGERKARRILMKLDLKPMENVARVTMKKGKNILLYIDQPDVYRVAHSSTYIFFGEICVEDTSTTSVASQAAVKAAERFRGTSPAGRQGNEDGKAPGEESPHDDDDDENDGEDADAMGLHAKDIELVQMQAACSRKKAIQALLKNDNDVVNAIMALTVG | failed |
| MGKLLFVDIGGTLLDYSNEVPRSAVDAIRKARAKGHRVYLSSGRSSAEVTSQLWDIGVDGLIGANGGYVESAQESVFHRRLSGEETRHIVEWLYNRGLEFYLESNNGLYASRGFREASKPVLSRLSEKTDVTVDSMYPDMFWGASLDRDDVNKISYIFNSQEDLDAAREAFPNLEHTTWGGQTGALFGTIGVSVNKKIGVDRLLKYLNADRANTIAFGDSDEDLSLFEASAYGVAMGEATESLKAAADLVTDAVGQDGLRNAFLKLELIDA | failed |
| MGKQESEKTVTGSDGSGRYERKALIDKLYETQELSREEWIRLIEGRTPELSEYLFEKARAVREREYGKAVYIRGLIECSNYCRNNCYYCGIRRGNQNAQRYRLTADEILSCCENGYSLGFRTFVLQGGEDPAMTDGWVADVIRRIKKEFPDCAVTLSLGEKSEAAYQCLFDAGADRYLLRHETADADHYGKLHPDGLSLAHRMECLRTLKRIGFQTGCGFMVGSPGQTPECLAKDMAFIRELNPQMVGIGPFIPQHDTPFRDERAGAFEETLWLLGLIRLMLPRVLLPATTALGTIHPKGRELGMLAGANVVMPNLSPLGVRKKYLLYDNKICTGDEAAESLNSLKESMKAIGYEVAVGRGDYRL | failed |
| MGKRLYAVAYDIPDDTRRVKLANLLKSYGERVQLSVFECYLDERLLEDLRRRARRLLDLGQDALRIYPVAGQVEVLGVGPLPELREVQVL | not failed |
| MGKRMLSMFHPFEIALCGLSGSGKTTLLEKLIRRFSTDGFEVAAFKHGCHRFDIDREGKDSDRFRRAGAVPVLIVDREKEALISSGTGRLDIAGLTLNADLLFIEGFKELPVPKVLLIDERREILPSLESGAIPEVLALAHDGDAEDMERFGLPLFHRDDVARISDFSAEFFRRAAQSVPLNGLVLAGGRSLRMGRDKAQLRYHEASQLDRTAALLGGVCNEVFISCRSDQLDQYSDARLPGIADSYLDLGPLGGLLSAQRHAPGAAWLVAACDLPFIDEAVIAALRAGRHPFRFGTAFAGSDGRPEPLLAIYEPKSRRRLLERHASGNDSLRAFLMNSRVQFIEPNDASKLRNVNDPAAMDDALRAISKGGQLEHHHHHH | failed |
| MGKTLTGFHLKVIGVISMVFDHLLQFFSFLGVPGWFGWIGRIAAPIFLFESSEGFIHTSNRRKYMFRLLLGFWIMGILNGFLNAYFSTGGLIINNIFGTLFLGTVYMQSMDYFKQKQIGKGLLWFIVPLLISALPLVVFSSPDILSNPAILIGFQIFNLIVPSLMMTEGGFLFVLLAVAFYLFHGKKWLQISAIGVVALISAASYNFQELFGVNHQWMMILAAIPIVLYNGEKGRGMRNFFYIFYPAHIAIFAIISFFMQR | failed |
